T1: ETS1 (Homo sapiens, UniProt P14921)
T1 sequence: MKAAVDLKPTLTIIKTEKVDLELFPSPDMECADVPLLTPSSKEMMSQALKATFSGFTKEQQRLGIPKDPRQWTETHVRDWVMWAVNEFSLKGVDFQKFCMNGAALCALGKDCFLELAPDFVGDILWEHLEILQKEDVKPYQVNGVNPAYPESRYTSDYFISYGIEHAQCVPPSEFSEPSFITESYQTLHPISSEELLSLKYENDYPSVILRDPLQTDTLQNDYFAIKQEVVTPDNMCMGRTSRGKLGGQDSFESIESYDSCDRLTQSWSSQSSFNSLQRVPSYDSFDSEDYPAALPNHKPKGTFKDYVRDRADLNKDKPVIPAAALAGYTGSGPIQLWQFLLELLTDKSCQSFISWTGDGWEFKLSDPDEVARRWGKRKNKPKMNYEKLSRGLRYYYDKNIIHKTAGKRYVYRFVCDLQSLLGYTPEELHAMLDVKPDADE

B1: Table S2 B row 1479 (dsDNA)
DNA 1: CAGATTCCCGGAAAGGGGGACATGTAGCCGCCAAAG
DNA 2: CTTTGGCGGCTACATGTCCCCCTTTCCGGGAATCTG
B2: Table S2 B row 411 (dsDNA)
DNA 1: CGCCCTCCGGAAGAGAGGGCGGACAGCGCCCGCGCC
DNA 2: GGCGCGGGCGCTGTCCGCCCTCTCTTCCGGAGGGCG
B3: Table S2 B row 40 (dsDNA)
DNA 1: TTGCGTCATTTCCGAGAGACTTTCGCGCCGCTGTTT
DNA 2: AAACAGCGGCGCGAAAGTCTCTCGGAAATGACGCAA
B4: Table S2 B row 3244 (dsDNA)
DNA 1: CCCGCTGTCACTTCCTGCTTCCCTCCCGCGCACGTG
DNA 2: CACGTGCGCGGGAGGGAAGCAGGAAGTGACAGCGGG
B5: Table S2 B row 3871 (dsDNA)
DNA 1: CCTGAGAGATCCGGCGCGCGTCTTCCACCAAAATGC
DNA 2: GCATTTTGGTGGAAGACGCGCGCCGGATCTCTCAGG
B6: Table S2 B row 3605 (dsDNA)
DNA 1: GGGCTTCCCGGGTACAAAAATGGCTGTCGCTAGCGA
DNA 2: TCGCTAGCGACAGCCATTTTTGTACCCGGGAAGCCC
B7: Table S2 B row 2231 (dsDNA)
DNA 1: GCGCCCTCCAGGAAACGCCGCGATTTACTGTCTGCC
DNA 2: GGCAGACAGTAAATCGCGGCGTTTCCTGGAGGGCGC
B8: Table S2 B row 2753 (dsDNA)
DNA 1: AGTTGCTTCCTAATCCTGCTGAGCCATTAGCCCCAA
DNA 2: TTGGGGCTAATGGCTCAGCAGGATTAGGAAGCAACT
B9: Table S2 B row 3799 (dsDNA)
DNA 1: GCAAAGATACATCCTTCTCCCCAGAGACTAAGTTTC
DNA 2: GAAACTTAGTCTCTGGGGAGAAGGATGTATCTTTGC
B10: Table S2 B row 3719 (dsDNA)
DNA 1: GACCTGGGCAGGAAGAGCGGCATTTGGGGCCCCCTG
DNA 2: CAGGGGGCCCCAAATGCCGCTCTTCCTGCCCAGGTC
B11: Table S2 B row 1799 (dsDNA)
DNA 1: AGCGGCCGAAGGAAGTGACGTTTGGGGCAGTAAGGC
DNA 2: GCCTTACTGCCCCAAACGTCACTTCCTTCGGCCGCT
B12: Table S2 B row 3926 (dsDNA)
DNA 1: GCTGTCCGTTTCCGAGATGTTAATGCGAGGTCTTGC
DNA 2: GCAAGACCTCGCATTAACATCTCGGAAACGGACAGC
B13: Table S2 B row 3245 (dsDNA)
DNA 1: GCGCCCGGAAGGAAGGCTGGGGTAGGTTGTAGTTTC
DNA 2: GAAACTACAACCTACCCCAGCCTTCCTTCCGGGCGC
B14: Table S2 B row 1617 (dsDNA)
DNA 1: ACCACCCCCAGAGACAAACTCACATCCTCTCCCTAG
DNA 2: CTAGGGAGAGGATGTGAGTTTGTCTCTGGGGGTGGT
B15: Table S2 B row 4028 (dsDNA)
DNA 1: GCCTGAAGGACTTCCGGGAACCGAAAAGCACGGTGT
DNA 2: ACACCGTGCTTTTCGGTTCCCGGAAGTCCTTCAGGC
B16: Table S2 B row 2750 (dsDNA)
DNA 1: CTAGTCTGTTTCCTCATCTGCCGCCTGCACGCCCGC
DNA 2: GCGGGCGTGCAGGCGGCAGATGAGGAAACAGACTAG
B17: Table S2 B row 234 (dsDNA)
DNA 1: GGGGGAATGTAGGAAGTATCATCGCCTACAAGAAAG
DNA 2: CTTTCTTGTAGGCGATGATACTTCCTACATTCCCCC
B18: Table S2 B row 1867 (dsDNA)
DNA 1: TCAGGAAGTGGTGTGACCAGCATGTGAACAGCGGCA
DNA 2: TGCCGCTGTTCACATGCTGGTCACACCACTTCCTGA

Target: T1, ETS1
Test: gcPBM; 1 nM ETS1
Details: tags: N-terminal GST (pDEST15), kept (PMC6008103); label: surface-attached array probe

| Binder | binding signal |
| --- | --- |
| B1 | 1360 PBM fluorescence, median of replicate spots |
| B2 | 1330 PBM fluorescence, median of replicate spots |
| B3 | 1300 PBM fluorescence, median of replicate spots |
| B4 | 19700 PBM fluorescence, median of replicate spots |
| B5 | 1260 PBM fluorescence, median of replicate spots |
| B6 | 1230 PBM fluorescence, median of replicate spots |
| B7 | 1190 PBM fluorescence, median of replicate spots |
| B8 | 1170 PBM fluorescence, median of replicate spots |
| B9 | 1150 PBM fluorescence, median of replicate spots |
| B10 | 1120 PBM fluorescence, median of replicate spots |
| B11 | 1090 PBM fluorescence, median of replicate spots |
| B12 | 1060 PBM fluorescence, median of replicate spots |
| B13 | 1030 PBM fluorescence, median of replicate spots |
| B14 | 1010 PBM fluorescence, median of replicate spots |
| B15 | 19300 PBM fluorescence, median of replicate spots |
| B16 | 985 PBM fluorescence, median of replicate spots |
| B17 | 948 PBM fluorescence, median of replicate spots |
| B18 | 936 PBM fluorescence, median of replicate spots |

— paper PMC10681739, “High-throughput data and modeling reveal insights into the mechanisms of cooperative DNA-binding by transcription factor proteins”
